Source: patent publication US20100298224A1 (UNIVERSITE PARIS SUD XI, published 2010)

Biological target: T1, factor Xa (FXa, Kordia) (UniProt P00742 41-179; P00742 235-488, limits assumed)
T1 construct: The bovine factor Xa of the Rotachrom kit is a different reagent and is not used here
Test: ratio of kon for FXa inhibition against plasma AT, with pentasaccharide
Method: In a second time FXa residual activity is measured by adding 190 μl of S2765 (200 μM) to 10 μl of previous mixture. Initial rate of substrate hydrolysis is then plotted as the function of incubation time with inhibitor and curves are fitted with equation 1 to determine kon (gray lines). Time expressed in minute is plotted in abscissa; substrate hydrolysis rate expressed in OD/s⁻¹ is plotted in ordinate.

T1 sequence (P00742 41-179 limits assumed, form in doubt, chain 1 of 2): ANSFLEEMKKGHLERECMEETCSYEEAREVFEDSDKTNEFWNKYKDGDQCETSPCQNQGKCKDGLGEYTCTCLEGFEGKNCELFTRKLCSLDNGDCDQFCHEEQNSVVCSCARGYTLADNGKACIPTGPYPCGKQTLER
T1 sequence (P00742 235-488 limits assumed, form in doubt, chain 2 of 2): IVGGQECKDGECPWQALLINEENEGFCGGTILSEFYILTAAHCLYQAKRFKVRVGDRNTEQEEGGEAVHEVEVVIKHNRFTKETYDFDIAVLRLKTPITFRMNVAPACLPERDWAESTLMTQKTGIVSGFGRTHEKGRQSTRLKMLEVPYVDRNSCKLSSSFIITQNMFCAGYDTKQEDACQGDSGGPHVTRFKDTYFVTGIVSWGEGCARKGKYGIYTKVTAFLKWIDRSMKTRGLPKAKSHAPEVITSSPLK

B1: AT-N135Q-Pro394 (other)
chain: HGSPVDICTAKPRDIPMNPMCIYRSPEKKATEDEGSEQKIPEATNRRVWELSKANSRFATTFYQHLADSKNDNDNIFLSPLSISTAFAMTKLGACNDTLQQLMEVFKFDTISEKTSDQIHFFFAKLNCRLYRKAQKSSKLVSANRLFGDKSLTFNETYQDISELVYGAKLQPLDFKENAEQSRAAINKWVSNKTEGRITDVIPSEAINELTVLVLVNTIYFKGLWKSKFSPENTRKELFYKADGESCSASMMYQEGKFRYRRVAEGTQVLELPFKGDDITMVLILPKPEKSLAKVEKELTPEVLQEWLDELEEMMLVVHMPRFRIEDGFSLKEQLQDMGLVDLFSPEKSKLPGIVAEGRDDLYVSDAFHKAFLEVNEEGSEAAASTAVVIAGRPSLNPNRVTFKANRPFLVFIREVPLNTIIFMGRVANPCVK
notes: Recombinant double mutant antithrombin made in HEK-293 or BHK-21 cells, secreted
fold lower kon than plasma AT: ≥ 7600 fold
